In paper PMC3616968, “Post-Transcriptional Regulation of the Trypanosome Heat Shock Response by a Zinc Finger Protein”:

Target: T1, ZC3H11-119 (Trypanosoma brucei, UniProt Q57W26 1-119)
T1 sequence: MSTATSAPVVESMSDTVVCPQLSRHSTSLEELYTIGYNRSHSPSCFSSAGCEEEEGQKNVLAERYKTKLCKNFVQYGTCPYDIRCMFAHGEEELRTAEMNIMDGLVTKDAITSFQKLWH
Test: EMSA; limiting probe titration; no binding; 20 mM Tris-HCl pH 8.0, 50 mM NaCl, 10 uM ZnCl2, 0.01% IGEPAL CA-630, 0.1 mg/ml tRNA, 10 ug/ml heparin (legends: 5 ug/ml or 10 mg/ml), room temperature 30 min; 100 pmol protein, 1 pmol RNA
Conditions: protein: recombinant; tags: His10 (called His-tagged)

B1: U23 (ssRNA)
RNA: UUUUUUUUUUUUUUUUUUUUUUU
- binding result: no binding
